# Source: the RNAGym collection of RNA variant scans (doi:10.7554/elife.80360)
# B1: CPEB3 Ribozyme (parent)
# chain: GGGGGCCACAGCAGAAGCGUUCACGUCGCGGCCCCUGUCAGAUUCUGGUGAAUCUGCGAAUUCUGCUGU
# Variants of: B1
# Experiment: self-cleavage, relative activity (ratio to wild type); higher = more cleavage; co-transcriptional
row,Variant,self-cleavage
1,UGGGGCCACAGCAGAAGCGUUCACGUCGCGGCCCCUGUCAGAUUCUGGUGAAUCUGCGAAUUCGGCUGU [G1U U64G],0.117
2,UGGGGCCACAGCAGAAGCGUUCACGUCGCGGCCCCUGUCAGAUUCUGGUGAAUCUGCGAAUUCUGCAGU [G1U U67A],0.167
3,UGGGGCCACAGCAGAAGCGUUCACGUCGCGGCCCCUGUCAGAUUCUGGUGAAUCUGCGAAUUCUGCCGU [G1U U67C],0.0935
4,UGGGGCCACAGCAGAAGCGUUCACGUCGCGGCCCCUGUCAGAUUCUGGUGAAUCUGCGAAUUCUGCGGU [G1U U67G],0.204
5,UGGGGCCACAGCAGAAGCGUUCACGUCGCGGCCCCUGUCAGAUUCUGGUGAAUCUGCGAAUUCUGCUGA [G1U U69A],0.194
6,UGGGGCCACAGCAGAAGCGUUCACGUCGCGGCCCCUGUCAGAUUCUGGUGAAUCUGCGAAUUCUGCUGG [G1U U69G],0.265
7,GAGGGCCACAGCAGAAGCGUUCACGUCGCGGCCCCUGUCAGAUUCUGGUGAAUCUGCGAAUUCUGCUGU [G2A],0.216
8,GAGGGCCGCAGCAGAAGCGUUCACGUCGCGGCCCCUGUCAGAUUCUGGUGAAUCUGCGAAUUCUGCUGU [G2A A8G],0.105
9,GAGGGCCUCAGCAGAAGCGUUCACGUCGCGGCCCCUGUCAGAUUCUGGUGAAUCUGCGAAUUCUGCUGU [G2A A8U],0.199
10,GAGGGCCACCGCAGAAGCGUUCACGUCGCGGCCCCUGUCAGAUUCUGGUGAAUCUGCGAAUUCUGCUGU [G2A A10C],0.259
11,GAGGGCCACGGCAGAAGCGUUCACGUCGCGGCCCCUGUCAGAUUCUGGUGAAUCUGCGAAUUCUGCUGU [G2A A10G],0.201
12,GAGGGCCACAGCCGAAGCGUUCACGUCGCGGCCCCUGUCAGAUUCUGGUGAAUCUGCGAAUUCUGCUGU [G2A A13C],0.109
13,GAGGGCCACAGCGGAAGCGUUCACGUCGCGGCCCCUGUCAGAUUCUGGUGAAUCUGCGAAUUCUGCUGU [G2A A13G],0.129
14,GAGGGCCACAGCAGCAGCGUUCACGUCGCGGCCCCUGUCAGAUUCUGGUGAAUCUGCGAAUUCUGCUGU [G2A A15C],0.0708
15,GAGGGCCACAGCAGUAGCGUUCACGUCGCGGCCCCUGUCAGAUUCUGGUGAAUCUGCGAAUUCUGCUGU [G2A A15U],0.0881
16,GAGGGCCACAGCAGAUGCGUUCACGUCGCGGCCCCUGUCAGAUUCUGGUGAAUCUGCGAAUUCUGCUGU [G2A A16U],0.1
17,GAGGGCCACAGCAGAAGCGUUCCCGUCGCGGCCCCUGUCAGAUUCUGGUGAAUCUGCGAAUUCUGCUGU [G2A A23C],0.111
18,GAGGGCCACAGCAGAAGCGUUCGCGUCGCGGCCCCUGUCAGAUUCUGGUGAAUCUGCGAAUUCUGCUGU [G2A A23G],0.15
19,GAGGGCCACAGCAGAAGCGUUCACGUCGCGGCCCCUGUCUGAUUCUGGUGAAUCUGCGAAUUCUGCUGU [G2A A40U],0.0585
20,GAGGGCCACAGCAGAAGCGUUCACGUCGCGGCCCCUGUCAGCUUCUGGUGAAUCUGCGAAUUCUGCUGU [G2A A42C],0.0844

row,Variant,self-cleavage
1,GAGGGCCACAGCAGAAGCGUUCACGUCGCGGCCCCUGUCAGUUUCUGGUGAAUCUGCGAAUUCUGCUGU [G2A A42U],0.0966
2,GAGGGCCACAGCAGAAGCGUUCACGUCGCGGCCCCUGUCAGAUUCUGGUGCAUCUGCGAAUUCUGCUGU [G2A A51C],0.0717
3,GAGGGCCACAGCAGAAGCGUUCACGUCGCGGCCCCUGUCAGAUUCUGGUGGAUCUGCGAAUUCUGCUGU [G2A A51G],0.158
4,GAGGGCCACAGCAGAAGCGUUCACGUCGCGGCCCCUGUCAGAUUCUGGUGUAUCUGCGAAUUCUGCUGU [G2A A51U],0.233
5,GAGGGCCACAGCAGAAGCGUUCACGUCGCGGCCCCUGUCAGAUUCUGGUGAGUCUGCGAAUUCUGCUGU [G2A A52G],0.242
6,GAGGGCCACAGCAGAAGCGUUCACGUCGCGGCCCCUGUCAGAUUCUGGUGAUUCUGCGAAUUCUGCUGU [G2A A52U],0.12
7,GAGGGCCACAGCAGAAGCGUUCACGUCGCGGCCCCUGUCAGAUUCUGGUGAAUCUGCGCAUUCUGCUGU [G2A A59C],0.0548
8,GAGGGCCACAGCAGAAGCGUUCACGUCGCGGCCCCUGUCAGAUUCUGGUGAAUCUGCGGAUUCUGCUGU [G2A A59G],0.129
9,GAGGGCCACAGCAGAAGCGUUCACGUCGCGGCCCCUGUCAGAUUCUGGUGAAUCUGCGUAUUCUGCUGU [G2A A59U],0.0616
10,GAGGGCCACAGCAGAAGCGUUCACGUCGCGGCCCCUGUCAGAUUCUGGUGAAUCUGCGACUUCUGCUGU [G2A A60C],0.0397
11,GAGGGACACAGCAGAAGCGUUCACGUCGCGGCCCCUGUCAGAUUCUGGUGAAUCUGCGAAUUCUGCUGU [G2A C6A],0.044
12,GAGGGGCACAGCAGAAGCGUUCACGUCGCGGCCCCUGUCAGAUUCUGGUGAAUCUGCGAAUUCUGCUGU [G2A C6G],0.0574
13,GAGGGUCACAGCAGAAGCGUUCACGUCGCGGCCCCUGUCAGAUUCUGGUGAAUCUGCGAAUUCUGCUGU [G2A C6U],0.0868
14,GAGGGCAACAGCAGAAGCGUUCACGUCGCGGCCCCUGUCAGAUUCUGGUGAAUCUGCGAAUUCUGCUGU [G2A C7A],0.0557
15,GAGGGCUACAGCAGAAGCGUUCACGUCGCGGCCCCUGUCAGAUUCUGGUGAAUCUGCGAAUUCUGCUGU [G2A C7U],0.0501
16,GAGGGCCAAAGCAGAAGCGUUCACGUCGCGGCCCCUGUCAGAUUCUGGUGAAUCUGCGAAUUCUGCUGU [G2A C9A],0.435
17,GAGGGCCAGAGCAGAAGCGUUCACGUCGCGGCCCCUGUCAGAUUCUGGUGAAUCUGCGAAUUCUGCUGU [G2A C9G],0.411
18,GAGGGCCAUAGCAGAAGCGUUCACGUCGCGGCCCCUGUCAGAUUCUGGUGAAUCUGCGAAUUCUGCUGU [G2A C9U],0.493
19,GAGGGCCACAGGAGAAGCGUUCACGUCGCGGCCCCUGUCAGAUUCUGGUGAAUCUGCGAAUUCUGCUGU [G2A C12G],0.123
